{"source": "paper PMC2814086", "about": "(Molecular Microbiology, 2009)", "target": "the molecule itself", "assay": "mass spectrometry", "data": [{"protein": "MinE-His (wild-type MinE with a His tag, plasmid pSOT13 [PT7::minE-his]) (natural protein, E. coli, UniProt P0A734 1-88, looked up) MALLDFFLSRKKNTANIAKERLQIIVAERRRSDAEPHYLPQLRKDILEVICKYVQIDPEMVTVQLEQKDGDISILELNVTLPEAEELK", "values": [{"measurement": "stoichiometry N", "result": 2}]}]}
